Results published in paper PMC10994814, “Enzymatic activity of cGAS in the presence of three types of DNAs: limited cGAS stimulation by single-stranded HIV-1 SL2 DNA”.

Target: human cGAS (Homo sapiens, UniProt Q8N884 1-522)
Experiment: EMSA; 1 uM DNA, 3 uM cGAS; EMSA: 1 uM DNA, 0-5 uM cGAS, 20 mM Tris-HCl pH 8.0 (4 C), 200 mM NaCl, on ice 30 min; 8% native PAGE in 25 mM Tris-HCl pH 8.5, 190 mM glycine; ethidium bromide
Settings: protein: recombinant; tags: none (N-terminal His6-lipoyl domain removed with TEV protease); 20 bp duplex, unpaired G3 on all four ends (fork at both ends)

Chain of human cGAS (Q8N884 whole entry): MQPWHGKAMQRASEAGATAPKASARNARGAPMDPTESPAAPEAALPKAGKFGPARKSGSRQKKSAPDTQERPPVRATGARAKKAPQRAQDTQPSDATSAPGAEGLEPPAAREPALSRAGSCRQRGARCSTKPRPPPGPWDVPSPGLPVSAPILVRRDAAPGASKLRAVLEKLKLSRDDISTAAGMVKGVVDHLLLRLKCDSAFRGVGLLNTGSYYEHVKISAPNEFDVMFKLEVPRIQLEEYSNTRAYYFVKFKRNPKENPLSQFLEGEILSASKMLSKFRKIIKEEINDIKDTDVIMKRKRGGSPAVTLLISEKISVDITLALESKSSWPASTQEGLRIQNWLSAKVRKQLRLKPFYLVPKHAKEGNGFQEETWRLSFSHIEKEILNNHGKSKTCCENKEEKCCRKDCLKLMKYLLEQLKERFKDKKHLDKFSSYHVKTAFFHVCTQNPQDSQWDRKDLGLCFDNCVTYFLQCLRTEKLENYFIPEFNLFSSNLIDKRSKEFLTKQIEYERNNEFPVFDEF

B1: G3 Y-form DNA (dsDNA)
DNA 1: GGGGAACTCCAGCAGGACCATTGGGG
DNA 2: GGGCAATGGTCCTGCTGGAGTTCGGG
  binding signal: ~0 % unbound DNA at cGAS/DNA ratio 3
